Counts minus background (counts per 20 min) data for 60 molecules are collected here from patent US7304127.

To fix the notation:
B1: CXCR4 113-130 (peptide)
peptide: HVIYTVNLYSSVLILAFI
modifications: not checked
B2: CCR5 53-70 (peptide)
peptide: LILINCKRLKSMTDIYLL
modifications: not checked
B3: CXCR4 245-262 (peptide)
peptide: ILAFFACWLPYYIGISID
modifications: not checked
B4: CXCR4 225-242 (peptide)
peptide: KLSHSKGHQKRKALKTTV
modifications: not checked
B5: CXCR4 97-114 (peptide)
peptide: DAVANWYFGNFLCKAVHV
modifications: not checked
B6: CXCR4 85-102 (peptide)
peptide: LLFVITLPFWAVDAVANW
modifications: not checked
B7: CXCR4 209-226 (peptide)
peptide: ILPGIVILSCYCIIISKL
modifications: not checked
B8: CXCR4 121-138 (peptide)
peptide: YSSVLILAFISLDRYLAI
modifications: not checked
B9: CXCR4 261-278 (peptide)
peptide: IDSFILLEIIKQGCEFEN
modifications: not checked
B10: CXCR4 237-254 (peptide)
peptide: ALKTTVILILAFFACWLP
modifications: not checked
B11: CXCR4 149-166 (peptide)
peptide: KLLAEKVVYVGVWIPALL
modifications: not checked
B12: CXCR4 161-178 (peptide)
peptide: WIPALLLTIPDFIFANVS
modifications: not checked
B13: CXCR4 105-122 (peptide)
peptide: GNFLCKAVHVIYTVNLYS
modifications: not checked
B14: CCR5 57-74 (peptide)
peptide: NCKRLKSMTDIYLLNLAI
modifications: not checked
B15: CXCR4 133-150 (peptide)
peptide: DRYLAIVHATNSQRPRKL
modifications: not checked
B16: CCR5 37-54 (peptide)
peptide: YSLVFIFGFVGNMLVILI
modifications: not checked
B17: CXCR4 169-186 (peptide)
peptide: IPDFIFANVSEADDRYIC
modifications: not checked
B18: CXCR4 77-94 (peptide)
peptide: RLHLSVADLLFVITLPFW
modifications: not checked
B19: CXCR4 185-202 (peptide)
peptide: ICDRFYPNDLWVVVFQFQ
modifications: not checked
B20: CXCR4 61-78 (peptide)
peptide: LVMGYQKKLRSMTDKYRL
modifications: not checked
B21: CCR5 49-66 (peptide)
peptide: MLVILILINCKRLKSMTD
modifications: not checked
B22: CXCR4 193-210 (peptide)
peptide: DLWVVVFQFQHIMVGLIL
modifications: not checked
B23: CXCR4 257-274 (peptide)
peptide: IGISIDSFILLEIIKQGC
modifications: not checked
B24: CXCR4 201-218 (peptide)
peptide: FQHIMVGLILPGIVILSC
modifications: not checked
B25: CCR5 1-18 (peptide)
peptide: MDYQVSSPIYDINYYTSE
modifications: not checked
B26: CXCR4 129-146 (peptide)
peptide: FISLDRYLAIVHATNSQR
modifications: not checked
B27: CXCR4 205-222 (peptide)
peptide: MVGLILPGIVILSCYCII
modifications: not checked
B28: CXCR4 153-170 (peptide)
peptide: EKVVYVGVWIPALLLTIP
modifications: not checked
B29: CXCR4 221-238 (peptide)
peptide: IIISKLSHSKGHQKRKAL
modifications: not checked
B30: CXCR4 181-198 (peptide)
peptide: DDRYICDRFYPNDLWVVV
modifications: not checked
B31: CXCR4 141-158 (peptide)
peptide: ATNSQRPRKLLAEKVVYV
modifications: not checked
B32: CXCR4 157-174 (peptide)
peptide: YVGVWIPALLLTIPDFIF
modifications: not checked
B33: CXCR4 173-190 (peptide)
peptide: IFANVSEADDRYICDRFY
modifications: not checked
B34: CXCR4 265-282 (peptide)
peptide: ILLEIIKQGCEFENTVHK
modifications: not checked
B35: CXCR4 101-118 (peptide)
peptide: NWYFGNFLCKAVHVIYTV
modifications: not checked
B36: CXCR4 89-106 (peptide)
peptide: ITLPFWAVDAVANWYFGN
modifications: not checked
B37: CXCR4 65-82 (peptide)
peptide: YQKKLRSMTDKYRLHLSV
modifications: not checked
B38: CXCR4 73-90 (peptide)
peptide: TDKYRLHLSVADLLFVIT
modifications: not checked
B39: CXCR4 213-230 (peptide)
peptide: IVILSCYCIIISKLSHSK
modifications: not checked
B40: CXCR4 165-182 (peptide)
peptide: LLLTIPDFIFANVSEADD
modifications: not checked
B41: CXCR4 241-258 (peptide)
peptide: TVILILAFFACWLPYYIG
modifications: not checked
B42: CXCR4 117-134 (peptide)
peptide: TVNLYSSVLILAFISLDR
modifications: not checked
B43: CCR5 45-62 (peptide)
peptide: FVGNMLVILILINCKRLK
modifications: not checked
B44: CXCR4 81-98 (peptide)
peptide: SVADLLFVITLPFWAVDA
modifications: not checked
B45: CXCR4 229-246 (peptide)
peptide: SKGHQKRKALKTTVILIL
modifications: not checked
B46: CCR5 41-58 (peptide)
peptide: FIFGFVGNMLVILILINC
modifications: not checked
B47: CXCR4 249-266 (peptide)
peptide: FACWLPYYIGISIDSFIL
modifications: not checked
B48: CXCR4 137-154 (peptide)
peptide: AIVHATNSQRPRKLLAEK
modifications: not checked
B49: CXCR4 177-194 (peptide)
peptide: VSEADDRYICDRFYPNDL
modifications: not checked
B50: CXCR4 253-270 (peptide)
peptide: LPYYIGISIDSFILLEII
modifications: not checked
B51: CXCR4 93-110 (peptide)
peptide: FWAVDAVANWYFGNFLCK
modifications: not checked
B52: CXCR4 57-74 (peptide)
peptide: GLVILVMGYQKKLRSMTD
modifications: not checked
B53: CXCR4 145-162 (peptide)
peptide: QRPRKLLAEKVVYVGVWI
modifications: not checked
B54: CXCR4 125-142 (peptide)
peptide: LILAFISLDRYLAIVHAT
modifications: not checked
B55: CXCR4 109-126 (peptide)
peptide: CKAVHVIYTVNLYSSVLI
modifications: not checked
B56: CXCR4 217-234 (peptide)
peptide: SCYCIIISKLSHSKGHQK
modifications: not checked
B57: CXCR4 233-250 (peptide)
peptide: QKRKALKTTVILILAFFA
modifications: not checked
B58: CXCR4 189-206 (peptide)
peptide: FYPNDLWVVVFQFQHIMV
modifications: not checked
B59: CXCR4 197-214 (peptide)
peptide: VVFQFQHIMVGLILPGIV
modifications: not checked
B60: CXCR4 69-86 (peptide)
peptide: LRSMTDKYRLHLSVADLL
modifications: not checked

This experiment concerns the target HIV-1LAI envelope gp120 labeled with radioactive iodine (HIV-1 LAI), P03377. Kind of experiment: 125I-gp120, peptide array.
Take B1: the counts minus background (counts per 20 min) was 118.
For B2, the counts minus background (counts per 20 min) was 2.
With B3 the figure was 184; with B4, 130; with B5, 112.
With B6 the figure was 63; with B7, 192.
For the molecule B8, the counts minus background (counts per 20 min) is 157.
With B9 the figure was 3470.
Consider B10, for which the counts minus background (counts per 20 min) is 261.
With B11 the figure was 89; with B12, 182; with B13, 231.
With B14 the figure was 25; with B15, 168; with B16, 347.
As to B17, the counts minus background (counts per 20 min) amounted to 438.
As to B18, the counts minus background (counts per 20 min) worked out at 136.
With B19 the figure was 306; with B20, 105; with B21, 84.
With B22 the figure was 422; with B23, 734; with B24, 170.
With B25 the figure was 735; with B26, 91; with B27, 167.
With B28, the counts minus background (counts per 20 min) came to 147.
For B29, the counts minus background (counts per 20 min) was 157.
With B30 the figure was 125; with B31, 78; with B32, 124.
With B33 the figure was 267.
With B34 the figure was 117; with B35, 96.
With B36, the counts minus background (counts per 20 min) worked out at 130.
With B37 the figure was 99; with B38, 92.
Take B39: the counts minus background (counts per 20 min) worked out at 277.
Consider B40, for which the counts minus background (counts per 20 min) worked out at 1010.
With B41 the figure was 323.
B42: the counts minus background (counts per 20 min) worked out at 242.
On to B43, for which the counts minus background (counts per 20 min) is 62.
With B44 the figure was 253; with B45, 140.
With B46 the figure was 343; with B47, 202; with B48, 73.
For the molecule B49, the counts minus background (counts per 20 min) amounted to 157.
Take B50: the counts minus background (counts per 20 min) stood at 439.
With B51 the figure was 66; with B52, 157; with B53, 127.
With B54 the figure was 107; with B55, 243.
With B56 the figure was 259; with B57, 283; with B58, 416.
Consider B59, for which the counts minus background (counts per 20 min) was determined as 589.
With B60 the figure was 160.
